Test results from patent US20220332811A1 (NOVAROCK BIOTHERAPEUTICS, published 2022).

T1: recombinant human IL-23 (p19/p40 heterodimer) (human, UniProt Q9NPF7 20-189; P29460 23-328)
T1 construct: Recombinant protein; for the kinetics R&D Systems 1290-IL/CF; biotinylated for the ELISA; also called hIL23; hIL-23
T1 sequence (looked up) 1: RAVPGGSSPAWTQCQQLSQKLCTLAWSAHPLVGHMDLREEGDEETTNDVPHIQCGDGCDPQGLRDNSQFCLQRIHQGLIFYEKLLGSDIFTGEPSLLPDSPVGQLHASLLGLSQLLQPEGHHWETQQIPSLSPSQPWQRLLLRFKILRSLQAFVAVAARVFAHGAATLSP
T1 sequence (looked up) 2: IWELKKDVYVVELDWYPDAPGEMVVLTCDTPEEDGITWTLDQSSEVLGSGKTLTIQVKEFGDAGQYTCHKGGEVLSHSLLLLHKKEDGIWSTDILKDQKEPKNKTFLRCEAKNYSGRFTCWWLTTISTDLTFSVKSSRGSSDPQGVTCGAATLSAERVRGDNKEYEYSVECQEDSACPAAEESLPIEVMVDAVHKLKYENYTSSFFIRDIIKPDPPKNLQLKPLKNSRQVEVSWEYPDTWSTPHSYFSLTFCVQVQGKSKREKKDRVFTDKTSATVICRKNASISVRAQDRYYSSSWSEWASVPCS

T2: human p40 subunit protein (human, UniProt P29460 23-328)
T2 construct: p40 subunit alone; also called hp40
T2 sequence (looked up): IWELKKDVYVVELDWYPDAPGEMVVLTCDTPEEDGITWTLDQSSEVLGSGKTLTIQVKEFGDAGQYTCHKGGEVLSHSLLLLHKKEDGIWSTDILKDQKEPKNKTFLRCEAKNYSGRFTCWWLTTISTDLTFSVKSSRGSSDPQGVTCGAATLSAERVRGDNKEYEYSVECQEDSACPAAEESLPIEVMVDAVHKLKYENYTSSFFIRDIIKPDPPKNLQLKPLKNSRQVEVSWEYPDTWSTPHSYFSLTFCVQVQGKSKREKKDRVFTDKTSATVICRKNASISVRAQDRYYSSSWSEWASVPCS

T3: human IL-12 protein (human, UniProt P29459 23-219; P29460 23-328)
T3 construct: Recombinant protein; also called hIL12; hIL-12
T3 sequence (looked up) 1: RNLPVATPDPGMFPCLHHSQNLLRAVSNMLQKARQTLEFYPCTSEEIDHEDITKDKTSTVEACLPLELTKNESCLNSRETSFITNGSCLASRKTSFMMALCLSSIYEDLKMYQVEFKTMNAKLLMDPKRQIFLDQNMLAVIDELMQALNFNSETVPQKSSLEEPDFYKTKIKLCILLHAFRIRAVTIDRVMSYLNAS
T3 sequence (looked up) 2: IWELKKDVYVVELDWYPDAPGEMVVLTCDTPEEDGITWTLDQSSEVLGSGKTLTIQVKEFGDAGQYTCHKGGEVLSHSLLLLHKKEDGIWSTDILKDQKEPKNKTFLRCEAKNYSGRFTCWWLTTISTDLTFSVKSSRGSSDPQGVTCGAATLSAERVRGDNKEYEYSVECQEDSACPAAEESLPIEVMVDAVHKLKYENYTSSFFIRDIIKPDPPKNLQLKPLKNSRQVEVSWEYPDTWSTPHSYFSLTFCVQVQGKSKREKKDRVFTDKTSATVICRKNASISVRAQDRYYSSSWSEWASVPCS


Tests used:
[1] = biological target: T1, recombinant human IL-23 (p19/p40 …); assay: SPR (BIAcore 3000); antibody captured on anti-mouse IgG CM5 chip, hIL-23 0.156-40 nM, 1:1 global fit
Method: To ensure accurate measurements of the KD and IC50 endpoints in binding and functional assays, the antibodies were purified from the hybridoma culture supernatants prior to testing. The binding kinetics of the disclosed anti-IL-23p19-specific antibodies to recombinant human IL-23 was determined by Surface plasmon resonance (SPR) using BIAcore 3000 system docked with a CM5 chip previously immobilized via amine coupling chemistry with anti-mouse IgG antibody (GE Cat No. BR-1008-38). Flow cell 1 remained unmodified to serve as a reference cell for subtraction of systematic instrument noise and drift. Fc2-1 detection was run with double blanking (Fc1 and blank analyte buffer). Antibody samples were diluted to 50 μg/mL in HBS-EP (GE, catalog no: BR1001-88) and injected at a flow rate of 10 uL/minute for 1 minute. Next, hIL-23 (R&D systems, catalog no: 1290-IL/CF) diluted to 0.156-40 nM was injected at 50 μL/minute for 2 minutes, followed by 10 minutes dissociation. Data were analyzed in BIAEvalution software (GE Healthcare) by 1:1 binding model with global fit to determine apparent binding kinetics.

[2] = biological target: T1, recombinant human IL-23 (p19/p40 …); assay: cell-based or functional assay
[3] = biological target: T2, human p40 subunit protein; assay: SPR (BIAcore); antibody captured on anti-Fc chip, antigen injected
Method: (§1) Binding of anti-IL-23p19-specific antibodies to IL-23 proteins was analyzed by Surface plasmon resonance (SPR) determined by BIAcore. Briefly, serial dilutions of the anti-IL-23p19 antibodies or the control antibodies were captured on an anti-mouse or human Fc chip (s) that were immobilized on the CM5 chip using amine coupling kit (GE Healthcare, Catalog NO: BR-1000-50, LOT NO: 2087295).
(§2) Next, serial dilutions of IL-23 recombinant protein, human p19/mouse p40 heterodimer protein, human IL-12 protein and human p40 subunit protein in the running buffer containing 10 mM HEPES, 150 mM NaCl, 3 mM EDTA, 0.005% Tween 20, pH 7.4, were injected at 50 μl/minute over immobilized antibody for 1 minute followed by 2 minutes dissociation. Each injection was followed by a regeneration step with a 60-second pulse of 10 mM Glycine-HCl, pH 1.7 buffer. Fitting of experimental data was done with BIAevaluation software (GE Healthcare), fit with a Langmuir 1:1 model to determine apparent binding.

human IL-12 protein [4] = biological target: T3, human IL-12 protein; assay: as above
Method: as §1, §2

[5] = biological target: T1, recombinant human IL-23 (p19/p40 …); assay: SPR (BIAcore 3000); captured antibody, hIL-23 0.156-40 nM, 1:1 global fit
[6] = biological target: T2, human p40 subunit protein; assay: ELISA; antigen coated directly on plate
Method: (§3) The binding specificity of the disclosed anti-IL-23p19 antibodies were also assessed by ELISA. Briefly, biotinylated IL-23 were captured via streptavidin coated ELISA plates. Human p19/mouse p40, human IL-12 and human p40 subunit were directly coated to ELISA plates. Purified antibodies were then added to the plates followed by detection by goat-anti-mouse IgG-HRP (Jackson ImmunoResearch, catalog no: 115-036-071, LOT NO: 147271). After addition of ABTS substrate (Moss Inc., catalog no: ABTS-1000, LOT NO: 03086202), ELISA plates were read using an ELISA plate reader (Biotek). The controls depicted in FIG. 3: PC1 refers to a reference antibody (known to be a p19 specific antibody, Biointron, LOT NO:20180926A04); PC2 refers to a reference antibody (known to be a p40 specific antibody, Biointron, LOT NO: 20180925A07); PC3 refers to a reference antibody (MT155, known as a p19 specific antibody from Mabtech, catalog no: 3457-6-100, code: 3457-6-1000), the negative controls are human IgG4 (Dendritics, catalog no: DDXCHO4P-100, LOT NO: DDXCH04-028) and the mouse IgG2a (generated by Novarock Biotherapeutics).

human IL-12 protein [7] = biological target: T3, human IL-12 protein; assay: ELISA; antigen coated directly on plate
Method: as §3

Binder | Kd [1] [pM] | koff [1] [s⁻¹] | kon [1] [M⁻¹ s⁻¹] | IC50 pM, STAT3 activation in DB reporter cells [2] [pM] | Top % of inhibition, STAT3 activation in DB reporter cells [2] [%] | binding result [3] | binding result (human IL-12 protein [4]) | Kd [5] [pM] | koff [5] [s⁻¹] | kon [5] [M⁻¹ s⁻¹] | binding result [6] | binding result (human IL-12 protein [7])
Hu-5 18006B (antibody, IgG2b, V domains shown, Purified from hybridoma) VH: QLQLQESGPGLVKPSETLSLTCTVSGGSISSSSFYWGWIRQPPGKGLEWIGSIYYSGSTYYNPSLKSRVTISVDTSKNQFSLKLSSVTAADTAVYFCARHGVRGVIPHFDYWGQGTLVTVSS VL: QTVLTQEPSFSVSPGGTVTLTCGLNSGSVSTIYYPSWYQQTPGQAPRALIYSTNTRSSGVPDRFSGSILGNKAALTITGAQADDESDYYCVLFLGSGLVFGGGTKLTVL | 66.2 | 9.89e-05 | 1.49e+06 | 226 | 99 | no binding | no binding |  |  |  |  | 
Hu-2 18006B (antibody, V domains shown, Purified from hybridoma (Trianni mice); also called H-2 1800B (mIgG1)) VH: QVQLVQSGAEVKKPGASVKVSCKASGYTFTTYGISWVRQAPGQGLEWMGWISAYNGNTKYAQKLQGRVTMTTDTSTSTAYMELRSLRSDDTAVYYCAREWRAFYYYGLDVWGQGTTVTVSS VL: DIVMTQTPLSSPVTLGQPASISCRSSQSLEHSDGNTYLSWLQQRPNQPPRLLIYKVSNRFSGVPDRFSGSGAGTDFTLKISRVEAEDVGVYYCTQATQFPLTFGGGTKVEIK | 41.6 | 6.54e-05 | 1.57e+06 | 158 | 97 | no binding | no binding |  |  |  |  | 
Hu-6 18006B (purified from hybridoma) (antibody, V domains shown) VH: QVQLVQSGAEVKKPGASVKVSCKTSGYTFTYYGISWVRQAPGQGLEWMGLISAYNGNTNYGQKVQGRVTMTTDTSTSTAYMELRSLRSDDTAVYYCVTENINWRDAFDIWGQGTMVTVSS VL: EIVLTQSPDFQSVTPKEKVTITCRASQTIGSSLHWYQQKPDQSPKLLIKYASQSISGVPSRFSGSGSGTDFTLTINSLEAEDAAAYYCHQSSSLPYTFGQGTKLEIK |  |  |  | 60.5 | 99 |  |  |  |  |  |  | 
Hu-4 18006B* (recombinant, mIgG2a) (antibody, V domains shown) VH: QVHLVQSGAEVKKPGASVKVSCKASGYTFSSYGINWVRQAPGQGLEWMGWISAYSGNTDYSQHLQGRVTMTTDTSTNTAYMELRSLRSDDTAVYYCARASANWYDYFDPWGQGTLVTVSS VL: EIVLTQSPDFQSVTPKEKVTITCRASQTIGGSLHWYQQKPDQSPKLLITYASQSFSGVPSRFSGSGSGTDFTLTIHSLEAEDAATYYCHQSSILPYTFGQGTKLEIK |  |  |  | 265 | 100 | no binding | no binding |  |  |  |  | 
Hu-4 18006B** (recombinant, hIgG4) (antibody, V domains shown) VH: QVHLVQSGAEVKKPGASVKVSCKASGYTFSSYGINWVRQAPGQGLEWMGWISAYSGNTDYSQHLQGRVTMTTDTSTNTAYMELRSLRSDDTAVYYCARASANWYDYFDPWGQGTLVTVSS VL: EIVLTQSPDFQSVTPKEKVTITCRASQTIGGSLHWYQQKPDQSPKLLITYASQSFSGVPSRFSGSGSGTDFTLTIHSLEAEDAATYYCHQSSILPYTFGQGTKLEIK |  |  |  | 157 | 100 | no binding | no binding | 57.2 | 0.000143 | 2.5e+06 |  | 

The next lines start with the values.

Kd [1] [pM] | koff [1] [s⁻¹] | kon [1] [M⁻¹ s⁻¹] | IC50 pM, STAT3 activation in DB reporter cells [2] [pM] | Top % of inhibition, STAT3 activation in DB reporter cells [2] [%] | binding result [3] | binding result (human IL-12 protein [4]) | Kd [5] [pM] | koff [5] [s⁻¹] | kon [5] [M⁻¹ s⁻¹] | binding result [6] | binding result (human IL-12 protein [7]) | Binder
 |  |  | 168 | 99 |  |  |  |  |  | no binding | no binding | Hu-4 18006B (purified from hybridoma) (antibody, IgG2c, V domains shown) VH: QVHLVQSGAEVKKPGASVKVSCKASGYTFSSYGINWVRQAPGQGLEWMGWISAYSGNTDYSQHLQGRVTMTTDTSTNTAYMELRSLRSDDTAVYYCARASANWYDYFDPWGQGTLVTVSS VL: EIVLTQSPDFQSVTPKEKVTITCRASQTIGGSLHWYQQKPDQSPKLLITYASQSFSGVPSRFSGSGSGTDFTLTIHSLEAEDAATYYCHQSSILPYTFGQGTKLEIK
38.4 | 0.000171 | 4.44e+06 | 35.2 | 99 | no binding | no binding |  |  |  |  |  | Hu-6 18006B* (recombinant mIgG2a) (antibody, V domains shown) VH: QVQLVQSGAEVKKPGASVKVSCKTSGYTFTYYGISWVRQAPGQGLEWMGLISAYNGNTNYGQKVQGRVTMTTDTSTSTAYMELRSLRSDDTAVYYCVTENINWRDAFDIWGQGTMVTVSS VL: EIVLTQSPDFQSVTPKEKVTITCRASQTIGSSLHWYQQKPDQSPKLLIKYASQSISGVPSRFSGSGSGTDFTLTINSLEAEDAAAYYCHQSSSLPYTFGQGTKLEIK
